What follows are substances tested against natural cellular receptor for adenoviruses, on human 293 cells (assay: cell-based or functional assay).

Substance | propagation of the corresponding virus in 293 cells (multiplication factor) (multiplication factor) | multiplication factor of the virus in 293 cells (7 days post-infection) (multiplication factor)
Ad5 fiber CD5 to CD3 (replacement of the CD loop of an Ad5 with its equivalent from an Ad3) | < 1 | –
Ad5 fiber with the mutation A455F (from UniProt P11818 1-581) | < 1 | –
Ad5 fiber with the mutation G443D (from UniProt P11818 1-581) | < 1 | –
Ad5 fiber with the mutation I459A (from UniProt P11818 1-581) | < 1 | –
Ad5 fiber with the mutation L457K (from UniProt P11818 1-581) | < 1 | –
Ad5 fiber ΔCD+D (deletion of the CD loop and of the D sheet) (from UniProt P11818 1-581) | < 1 | –
Ad5 fiber ΔD (deletion of the D sheet of the Ad5 fiber) (from UniProt P11818 1-581) | < 1 | –
GRP fiber (Ad5 fiber with a 12-residue spacer arm and the GRP peptide at its C-terminal end), carried by AdTG4628 (from UniProt P11818 1-581) | – | 1000

Source: patent US20030175243A1
